Data as given in patent US20220056118A1 (UNIVERSITY OF BRITISH COLUMBIA, published 2022).

B1: mouse monoclonal antibody 2F7 (antibody, V domains shown)
VH: DVKLVESGGGLVKLGGSLKLSCAASGFTFSSYYMSWVRQTPEKRLELVATINSNGGSTYYPDTVKGRITISRDNAKNTLQLQMSSLRSEDTALYYCVRQNYEGAYWGQGTLVTVSA
VL: DVLMTQTPLSLPVTLGDQASISCRSSQSIVHSNGNTYLEWYLQKPGQSPKLLIYKVSNRFSGVPDRFSGSGSGTDFTLKISRVEAEDLGVYYCFQSSHVPWTFGGGTKLEIK
notes: Mouse hybridoma antibody; also called Mouse 2F7
B2: mouse monoclonal antibody 3E8 (antibody, V domains shown)
VH: DVKLVESGGGLVKLGGSLKLSCAASGFTFSSYYMSWVRQTPEKRLELVATINSNGGSTYYPDTVKGRITISRDNAKNTLQLQMSSLRSEDTALYYCVRQNYEGAYWGQGTLVTVSA
VL: DVLMTQTPLSLPVTLGDQASISCRSSQSIVHSNGNTYLEWYLQKPGQSPKLLIYKVSNRFSGVPDRFSGSGSGTDFTLKISRVEAEDLGVYYCFQSSHVPWTFGGGTKLEIK
notes: Mouse hybridoma antibody; also called Mouse 3E8
B3: rabbit monoclonal antibody 14 (14H1-14K2) (antibody, V domains shown)
VH: QEQLEESGGDLVKPEGSLTLTCTASGFSFSSNYVMCWVRQAPGKGLEWVACIWFAGIVDTTYYATWAKGRFTISKTSSTTVTLQMTSLTAADTATYFCARNPVGSVNLWGQGTLVTVS
VL: VMTQTPSSKSVPVGGSVTINCQASESVYSNNRLSWYQQKPGQPPKLLIYYASTLESGVPSRFKGSGFGTHFTLTISGAQCDDAATYYCAGWRGARTDGVDFGGGTEVVVK
notes: Recombinant; also called Rabbit 14; clone 14
B4: rabbit monoclonal antibody 1 (1H3-1K3) (antibody, V domains shown)
VH: QSVEESGGRLVTPGTPLTLTCTVSGFSLSRYYMTWVRQAPGKGLEYIGVIIPGGTTYYASWAKGRFTISKTSTTVDLRITSPTTEDTATYFCAGGPTGNSHFTLWGQGTLVTVS
VL: VMTQTPSSKSVPVGGTVTINCQASESVYNNNHLSWYQQKSGQPPKLLIYEASKLESGVPPRFKGSGSGTQFTLTISDVVCDDAATYYCSGYKRVTTDGIAFGGGTEVVVK
notes: Recombinant; also called Rabbit 1; clone 1
B5: rabbit monoclonal antibody 38 (38H1-38K1) (antibody, V domains shown)
VH: QSVEESGGRLVTPGTPLTLTCTVSGFSFSAYYMTWVRQAPGKGLEFIGVTIPIGRTYYASWAKGRFTISKTSTTVHLKITSPTTEDTAAYFCAGGPTGNSHFTLWGQGTLVTVS
VL: VMTQTPSSKSVPVGDTVTINCQASESVYNNNQLSWYQQKPGQPPKLLIYQASKLESGVPSRFKGSGSGTQFTLTISDVVCDDAATYYCAGYKSPTTDGIAFGGGTEVVVK
notes: Recombinant; also called clone 38
B6: rabbit monoclonal antibody 17 (17H3-17K3) (antibody, V domains shown)
VH: QEQLVESGGGLVQPGASLTLTCTASGFSFSSSYVMCWVRQAPGKGLEWITCSDTGINTWYASWAKGRFTISKTSSTTVTLQMTSLTAADTATYFCARRYTGDTYLGNFNLWGQGTLVTVS
VL: AQVLTQTPASVSAAVGGTVTINCQASQSVYKNNYLSWYQQKPGQPPKLLIYKASTLASGVPSRFKGSGSGTQFTLTISDVQCDDAATYYCAGGWRSLNAFGGGTEVVVK
notes: Recombinant; also called Rabbit 17; clone 17

Key:
[1] = molecular target: T1, DAGWGNLc (SEQ ID NO: 9) peptide conjugated to bovine serum albumin (human; bovine, UniProt P02769 25-607, N-terminus acetylated; C-terminal Cys conjugated to BSA); test: SPR, peptide-BSA immobilized (about 50 RU), antibody injected, Langmuir 1:1 fit
T1 construct: TDP-43 residues 65-71 plus an added C-terminal cysteine; also called Peptide conjugated to bovine serum albumin (BSA)
Method: Surface plasmon resonance (SPR) analysis was used to measure the binding kinetics of monoclonal antibodies to the peptide epitope. Peptide conjugated to bovine serum albumin (BSA) was immobilized at a very low density (approximately 50 RUs) on flow cells of a sensor chip. Purified mouse or rabbit monoclonal antibodies diluted 4-fold from 31.25 nM to 0.24 nM were injected sequentially over the surfaces for approximately 5 min followed by dissociation in buffer and surface regeneration. Binding parameters were calculated using kinetic curve fitting and a Langmuir 1:1 interaction model.

[2] = molecular target: T2, endogenous TDP-43 of HEK293FT cells (human, UniProt Q13148 1-414); test: immunocytochemistry, arsenite-stressed HEK293FT cells; column: Binding to stress granules
T2 construct: whole, on cells; Two states of the same protein are tested: nuclear in cells transfected with empty vector, and in the stress granules of cells stressed with sodium arsenite; the state is named in each row; also called endogenous, nuclear WT TDP-43; TDP-43 in physiologic stress granules

[3] = molecular target: T3, HA-tagged wild-type human TDP-43 with the original NLS sequence (WT-TDP43) (human, UniProt Q13148 1-414); test: immunocytochemistry, transfected HEK293FT cells; column: Binding to nuclear WT TDP-43
T3 construct: whole, on cells; Overexpressed inside transfected HEK293FT cells; also called wildtype TDP-43-HA; WT nuclear TDP-43-HA; not shown: HA tag
T3 sequence (Q13148 whole entry): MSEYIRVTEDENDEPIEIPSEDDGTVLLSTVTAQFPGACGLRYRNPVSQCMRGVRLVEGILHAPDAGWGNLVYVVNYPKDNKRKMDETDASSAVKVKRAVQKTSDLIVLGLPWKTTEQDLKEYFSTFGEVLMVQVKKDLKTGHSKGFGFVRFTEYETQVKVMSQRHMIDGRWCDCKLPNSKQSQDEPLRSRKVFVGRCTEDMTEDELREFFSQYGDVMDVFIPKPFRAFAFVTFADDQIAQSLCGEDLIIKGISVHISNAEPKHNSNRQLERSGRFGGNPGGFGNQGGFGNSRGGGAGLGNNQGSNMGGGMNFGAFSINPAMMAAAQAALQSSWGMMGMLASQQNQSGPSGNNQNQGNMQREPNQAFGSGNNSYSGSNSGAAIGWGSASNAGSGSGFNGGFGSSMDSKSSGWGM

T1 sequence (P02769 25-607 limits assumed): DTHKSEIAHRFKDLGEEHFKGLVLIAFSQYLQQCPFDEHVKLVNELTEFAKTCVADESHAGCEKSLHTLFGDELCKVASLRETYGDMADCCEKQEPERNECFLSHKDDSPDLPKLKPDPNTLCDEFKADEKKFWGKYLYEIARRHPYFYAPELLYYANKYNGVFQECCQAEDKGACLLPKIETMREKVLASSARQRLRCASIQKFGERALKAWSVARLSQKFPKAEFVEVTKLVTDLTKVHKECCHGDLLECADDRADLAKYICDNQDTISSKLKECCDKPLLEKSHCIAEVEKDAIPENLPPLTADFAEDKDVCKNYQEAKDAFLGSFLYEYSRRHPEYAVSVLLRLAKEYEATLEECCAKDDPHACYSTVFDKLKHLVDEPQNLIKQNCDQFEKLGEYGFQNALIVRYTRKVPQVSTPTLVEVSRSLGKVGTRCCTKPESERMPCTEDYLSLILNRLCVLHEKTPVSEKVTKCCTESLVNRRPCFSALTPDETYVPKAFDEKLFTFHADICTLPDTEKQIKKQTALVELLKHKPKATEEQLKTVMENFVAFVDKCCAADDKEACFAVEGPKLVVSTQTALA
T2 sequence (Q13148 whole entry): as the sequence (Q13148 whole entry) above

| Binder | Kd [1] [nM] | koff [1] [s⁻¹] | kon [1] [M⁻¹ s⁻¹] | binding result [2] | binding result [3] |
| --- | --- | --- | --- | --- | --- |
| B1 | 0.622 | 0.00176 | 2.83e+06 |  |  |
| B2 | 0.722 | 0.002 | 2.77e+06 |  |  |
| B3 | 0.0151 | 9.04e-06 | 599000 | no binding (tested: 10 ug/ml) | no binding (tested: 10 ug/ml) |
| B4 | 0.062 | 2.5e-05 | 403000 |  |  |
| B5 |  |  |  | no binding (tested: 10 ug/ml) | no binding (tested: 10 ug/ml) |
| B6 | 0.0919 | 4.32e-05 | 470000 |  |  |
